Publication PMC12251660, “The Structural Deciphering of the α3 Helix Within ZmHsfA2’S DNA-Binding Domain for the Recognition of Heat Shock Elements in Maize”

What was measured:
Experiment in all cases: EMSA; EMSA/Gel-Shift buffer (Beyotime GS009; composition, salt and pH not stated), 10 uL, 25 C 30 min; 6% native PAGE in 0.5x TBE at 4 C
Settings in all cases: protein: recombinant; tags: 6xHis (stated C-terminal; pET-30a); chain copies: 3; label: biotin; blunt
ZmHsf17-T109A = ZmHsf17-T109A (Zea mays, UniProt A0A5J6CYG6 1-373, T109A)
ZmHsf17-T109A, sequence (A0A5J6CYG6 entry or part of it T109A | T109A T109A): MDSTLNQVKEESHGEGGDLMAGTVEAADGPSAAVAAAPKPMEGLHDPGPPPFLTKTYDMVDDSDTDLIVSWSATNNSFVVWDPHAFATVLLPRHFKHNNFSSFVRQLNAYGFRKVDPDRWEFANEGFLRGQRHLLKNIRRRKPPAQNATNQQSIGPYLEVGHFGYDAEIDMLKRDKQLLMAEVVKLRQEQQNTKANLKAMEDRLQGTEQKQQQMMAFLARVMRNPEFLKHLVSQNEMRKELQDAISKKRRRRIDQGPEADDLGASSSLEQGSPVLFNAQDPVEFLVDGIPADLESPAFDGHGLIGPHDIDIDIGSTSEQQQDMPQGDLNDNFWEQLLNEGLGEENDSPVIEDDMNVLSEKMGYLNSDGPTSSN

ZmHsf17-R105A = ZmHsf17-R105A (Zea mays, UniProt A0A5J6CYG6 1-373, R105A)
ZmHsf17-R105A, sequence (A0A5J6CYG6 entry or part of it R105A | R105A R105A): as the sequence (A0A5J6CYG6 entry or part of it T109A | T109A T109A) above, with R105A, A109T counted along it

ZmHsf17-K142A = ZmHsf17-K142A (Zea mays, UniProt A0A5J6CYG6 1-373, K142A)
ZmHsf17-K142A, sequence (A0A5J6CYG6 entry or part of it K142A | K142A K142A): as the sequence (A0A5J6CYG6 entry or part of it T109A | T109A T109A) above, with A109T, K142A counted along it

B1: ZmPAH1-HSE2 (dsDNA)
DNA 1: CAGCGTCACATGACGGGAATTTTCACGTCTTTTCAGCCCT
DNA 2: AGGGCTGAAAAGACGTGAAAATTCCCGTCATGTGACGCTG
- binding result (ZmHsf17-T109A): binds
- binding result (ZmHsf17-R105A): no binding
- binding result (ZmHsf17-K142A): binds
